Reference: paper PMC6331412, “Protein Disulfide Isomerase Modulates the Activation of Thyroid Hormone Receptors” (Frontiers in Endocrinology, 2018)
Primed or numbered codes have the meaning given here. Ends that are not written are not given here. FITC′ = fluorescein isothiocyanate label

Experiments:
[1] = biological target: Fluorescein-SRC1–1 Coactivator Peptide 3; experiment: fluorescence polarisation; TR+T3 or the complex TR+T3:PDIA1 titrated from 1 to 7,000 nM into 50 nM fluorescein-SRC1 peptide; buffer A or B; triplicate
[2] = biological target: hTRα full length labelled with FITC (human) (UniProt P10827); experiment: fluorescence polarisation; oxidised PDIA1 (pre-incubated with 0.5 mM H2O2 for 30 min) titrated from 0.012 to 25 μM into 50 nM TR-FITC; 20 mM sodium phosphate pH 7.4, 150 mM NaCl, 5 mM MgCl2, no DTT in the buffer; with and without T3 by the methods, not given for the values
[3] = biological target: hTRβΔAB (amino acids 102–461) labelled with FITC (human) (UniProt P10828); experiment: as above
[4] = biological target: hTRα full length labelled with FITC (human) (UniProt P10827); experiment: fluorescence polarisation; PDIA1 titrated from 0.012 to 25 μM into 50 nM TR-FITC pre-incubated with 3 times molar excess of T3; 20 mM sodium phosphate pH 7.4, 150 mM NaCl, 5 mM MgCl2, 1 mM DTT; 20°C; Hill fit
[5] = biological target: hTRβΔAB (amino acids 102–461) labelled with FITC (human) (UniProt P10828); experiment: as above
[6] = biological target: hTRα full length labelled with FITC (human) (UniProt P10827); experiment: fluorescence polarisation; PDIA1 titrated from 0.012 to 25 μM into 50 nM TR-FITC, without T3; 20 mM sodium phosphate pH 7.4, 150 mM NaCl, 5 mM MgCl2, 1 mM DTT; 20°C; Hill fit
[7] = biological target: hTRβΔAB (amino acids 102–461) labelled with FITC (human) (UniProt P10828); experiment: as above
[8] = biological target: hTRα full length labelled with FITC (human) (UniProt P10827); experiment: fluorescence polarisation; reduced PDIA1 (pre-incubated with 0.5 mM DTT for 30 min) titrated from 0.012 to 25 μM into 50 nM TR-FITC; 20 mM sodium phosphate pH 7.4, 150 mM NaCl, 5 mM MgCl2, no DTT in the buffer; with and without T3 by the methods, not given for the values
[9] = biological target: hTRβΔAB (amino acids 102–461) labelled with FITC (human) (UniProt P10828); experiment: as above
[10] = biological target: hTRβΔAB (amino acids 102–461), recombinant (human) (UniProt P10828); experiment: SEC; analytical gel filtration, Superdex 200 HR 10/300, buffer A or B with 150 mM NaCl and 2 mM DTT, 0.5 mL/min; hydrodynamic radii from calibration standards; proteins alone and mixed
[11] = biological target: hTRα full length, recombinant (human) (UniProt P10827); experiment: as above
[12] = biological target: T1, hTRβΔAB (amino acids 102–461), recombinant (human, UniProt P10828 102-461); experiment: fluorescence polarisation; TR+T3 or the complex TR+T3:PDIA1 titrated from 1 to 7,000 nM into 50 nM fluorescein-SRC1 peptide; buffer A or B; triplicate; details: both partners purified
T1 construct: numbers fit TRβ1 (461 aa); Unlabelled protein, used in SEC, DLS and, pre-incubated with T3, in the SRC1 anisotropy; also called TRβDL; source: E. coli BL21(DE3), purified (Talon resin, SEC Superdex 75)
T1 sequence (looked up): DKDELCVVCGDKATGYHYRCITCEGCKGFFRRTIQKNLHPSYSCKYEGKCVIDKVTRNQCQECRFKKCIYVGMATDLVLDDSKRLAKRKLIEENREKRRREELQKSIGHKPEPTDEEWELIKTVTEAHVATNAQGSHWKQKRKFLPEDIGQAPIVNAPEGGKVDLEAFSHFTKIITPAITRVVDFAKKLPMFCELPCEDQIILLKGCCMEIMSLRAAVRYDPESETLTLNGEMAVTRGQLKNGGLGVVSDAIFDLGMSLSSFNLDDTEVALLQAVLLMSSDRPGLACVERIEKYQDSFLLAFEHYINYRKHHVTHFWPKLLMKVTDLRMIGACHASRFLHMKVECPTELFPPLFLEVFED

TRβ+T3:PDIA1 complex (from UniProt P10828 102-461; P07237 18-508)
Kd [1]: 390 nM

hTRα full length, recombinant (from UniProt P10827-2 1-410) (receptor)
Kd [1]: 290 nM

hPDIA1 full length, recombinant (from UniProt P07237 18-508) (enzyme)
Kd [2]: 7900 nM
Kd [3]: > 102000 nM
Kd [4]: 1970 nM
Kd [5]: 2810 nM
Kd [6]: 2050 nM
Kd [7]: 2710 nM
Kd [8]: 10700 nM
Kd [9]: 4540 nM
stoichiometry N [10]: 1
stoichiometry N [11]: 1

TRα+T3:PDIA1 complex (from UniProt P10827-2 1-410; P07237 18-508)
Kd [1]: 700 nM

B1: Fluorescein-SRC1–1 Coactivator Peptide 3 (peptide)
peptide: {FITC′}-KYSQTSHKLVQLLTTTAEQQL
notes: also called SRC1 peptide; CoA peptide; source: bought: Life-technologies
Kd [12]: 680 ± 60 nM
